In article PMC2641028:

Tests used:
[1] = biological target: CP-MVP-Z recombinant vaults
[2] = biological target: CP-MVP-Z recombinant vaults; experiment: ELISA

Substance | other [1] | EC50 [2]
rabbit IgG (Sigma) (antibody) | 92% | 0.25 nM
mouse IgG (Sigma) (antibody) | 52% | –
